Measurements from IntAct's records for PubMed 20385816.

Biological target: slac1_arath SLAC1 (UniProt Q9LD83)
Sequence (Q9LD83 whole entry): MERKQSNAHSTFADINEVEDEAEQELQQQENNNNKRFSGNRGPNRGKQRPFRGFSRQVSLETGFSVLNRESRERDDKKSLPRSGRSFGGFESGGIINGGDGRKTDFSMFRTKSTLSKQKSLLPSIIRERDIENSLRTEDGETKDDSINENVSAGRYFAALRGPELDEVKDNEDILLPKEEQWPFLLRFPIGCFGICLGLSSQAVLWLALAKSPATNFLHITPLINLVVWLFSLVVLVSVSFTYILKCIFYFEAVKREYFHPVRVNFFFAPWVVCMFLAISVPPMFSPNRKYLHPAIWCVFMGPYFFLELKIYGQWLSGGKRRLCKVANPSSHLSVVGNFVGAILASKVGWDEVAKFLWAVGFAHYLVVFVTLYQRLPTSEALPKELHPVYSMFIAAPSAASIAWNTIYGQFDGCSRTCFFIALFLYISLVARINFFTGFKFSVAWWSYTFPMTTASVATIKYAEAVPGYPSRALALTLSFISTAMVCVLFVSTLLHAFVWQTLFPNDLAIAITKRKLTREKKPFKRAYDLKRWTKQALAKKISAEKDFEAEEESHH

Sequence of Calcium-dependent protein kinase 23 (Arabidopsis thaliana (Mouse-ear cress)), Q9M101 D193A (Q9M101 whole entry D193A): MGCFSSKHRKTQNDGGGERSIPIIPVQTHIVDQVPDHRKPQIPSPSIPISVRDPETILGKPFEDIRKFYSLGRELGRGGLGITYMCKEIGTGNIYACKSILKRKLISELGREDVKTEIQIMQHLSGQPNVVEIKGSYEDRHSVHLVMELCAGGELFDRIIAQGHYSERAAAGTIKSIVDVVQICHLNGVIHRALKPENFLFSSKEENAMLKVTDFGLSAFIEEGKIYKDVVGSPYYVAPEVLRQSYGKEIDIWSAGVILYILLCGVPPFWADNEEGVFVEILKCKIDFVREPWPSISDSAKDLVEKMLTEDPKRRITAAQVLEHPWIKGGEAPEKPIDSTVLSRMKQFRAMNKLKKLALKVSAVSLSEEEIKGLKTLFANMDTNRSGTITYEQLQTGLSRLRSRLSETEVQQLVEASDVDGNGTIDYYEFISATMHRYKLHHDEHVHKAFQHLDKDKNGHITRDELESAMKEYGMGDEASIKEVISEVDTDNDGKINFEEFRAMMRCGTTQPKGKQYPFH

**Q.** “Calcium-dependent protein kinase 23 (Arabidopsis thaliana (Mouse-ear cress)), Q9M101 D193A” was tested. Which “effect of a mutation on the interaction” value did it give?
**A.** Its value is “disrupting interaction”.
